{"source": "FireProtDB (doi:10.1016/0167-4838(91)90474-e)", "settings": "Gallus gallus, Absorbance, Sodium phosphate 0.06 M, reversible: yes, whole UniProt chain shown; for unfolding enthalpy (van 't Hoff): Thermal; for denaturant m value / denaturant midpoint (higher = more stable) / unfolding free energy: 25 °C, Urea", "note": "“And” between values parts separate entries of the source, which are not always exact repeats. Equal values may be shown once.", "data": [{"protein": "Ovomucoid wild type, P01005 (protein) MAMAGVFVLFSFVLCGFLPDAAFGAEVDCSRFPNATDKEGKDVLVCNKDLRPICGTDGVTYTNDCLLCAYSIEFGTNISKEHDGECKETVPMNCSSYANTTSEDGKVMVLCNRAFNPVCGTDGVTYDNECLLCAHKVEQGASVDKRHDGGCRKELAAVSVDCSEYPKPDCTAEDRPLCGSDNKTYGNKCNFCNAVVESNGTLTLSHFGKC", "values": [{"measurement": "unfolding enthalpy (van 't Hoff)", "setting": "pH 5", "result": "34 kcal/mol and 30 kcal/mol"}, {"measurement": "unfolding enthalpy (van 't Hoff)", "setting": "pH 5, transition: 3", "result": "30 kcal/mol and 44 kcal/mol"}, {"measurement": "denaturant m value", "setting": "pH 7", "result": "1.35 kcal/mol/M and 1.15 kcal/mol/M"}, {"measurement": "denaturant midpoint (higher = more stable)", "setting": "pH 7", "result": "2.7 M and 2.8 M"}, {"measurement": "unfolding free energy", "setting": "pH 7", "result": "4.65 kcal/mol and 3.39 kcal/mol"}, {"measurement": "denaturant m value", "setting": "pH 7, transition: 3", "result": "1.01 kcal/mol/M and 1.03 kcal/mol/M and 1.02 kcal/mol/M"}, {"measurement": "denaturant midpoint (higher = more stable)", "setting": "pH 7, transition: 3", "result": "7.3 M and 2.8 M and 6.9 M"}, {"measurement": "unfolding free energy", "setting": "pH 7, transition: 3", "result": "7.66 kcal/mol and 3.39 kcal/mol and 7.42 kcal/mol"}, {"measurement": "unfolding enthalpy (van 't Hoff)", "setting": "pH 7", "result": "58 kcal/mol and 37 kcal/mol"}, {"measurement": "unfolding enthalpy (van 't Hoff)", "setting": "pH 7, transition: 3", "result": "82 kcal/mol and 54 kcal/mol and 46 kcal/mol"}]}]}
